In publication PMC3578163 (Chemical research in toxicology, 2013) one finds Kd data, which are given here for one molecule.

What all share (assay): fluorescence polarization
Series [1] addresses T1, DNA polymerase iota catalytic core (hpol ι26-446) (Homo sapiens, UniProt Q9UNA4 26-446).
T1 sequence: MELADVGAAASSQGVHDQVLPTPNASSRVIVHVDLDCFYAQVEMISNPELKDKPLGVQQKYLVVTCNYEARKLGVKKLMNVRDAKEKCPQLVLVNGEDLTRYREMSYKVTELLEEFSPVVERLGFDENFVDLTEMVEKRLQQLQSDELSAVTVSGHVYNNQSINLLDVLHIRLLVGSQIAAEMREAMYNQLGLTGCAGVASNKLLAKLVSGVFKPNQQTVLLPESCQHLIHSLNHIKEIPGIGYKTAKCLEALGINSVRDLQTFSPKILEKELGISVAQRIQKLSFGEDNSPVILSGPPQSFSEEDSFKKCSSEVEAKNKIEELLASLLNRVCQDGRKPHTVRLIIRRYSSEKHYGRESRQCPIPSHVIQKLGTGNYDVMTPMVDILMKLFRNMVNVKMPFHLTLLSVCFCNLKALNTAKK

Series [2] addresses T2, DNA polymerase kappa catalytic core (hpol κ19-526) (Homo sapiens, UniProt Q9UBT6 19-526).
T2 sequence: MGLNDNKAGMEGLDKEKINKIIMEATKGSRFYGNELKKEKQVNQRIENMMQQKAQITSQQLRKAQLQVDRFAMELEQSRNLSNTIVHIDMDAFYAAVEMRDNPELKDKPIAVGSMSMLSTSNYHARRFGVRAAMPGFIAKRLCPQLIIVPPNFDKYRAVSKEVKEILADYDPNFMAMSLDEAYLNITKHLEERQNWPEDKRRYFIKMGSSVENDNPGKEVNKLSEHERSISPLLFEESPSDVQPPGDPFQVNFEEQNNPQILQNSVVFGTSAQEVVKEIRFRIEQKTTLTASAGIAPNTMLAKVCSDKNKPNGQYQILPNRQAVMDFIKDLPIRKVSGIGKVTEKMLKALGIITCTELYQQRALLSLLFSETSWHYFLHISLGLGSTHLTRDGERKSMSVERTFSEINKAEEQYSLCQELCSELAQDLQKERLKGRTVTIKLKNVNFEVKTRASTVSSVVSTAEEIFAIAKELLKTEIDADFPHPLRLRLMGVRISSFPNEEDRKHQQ

For series [3], the target named is T1, DNA polymerase iota catalytic core …. The source holds these as a separate data set.
Series [4] has the same target. This is another data set of the same source.
The target of series [5] is T2, DNA polymerase kappa catalytic core …. The source holds these as a separate data set.
Series [6] has as its target T1, DNA polymerase iota catalytic core …. The source holds these as a separate data set.
Series [7] addresses T2, DNA polymerase kappa catalytic core …. This is another data set of the same source.
The target of series [8] is T1, DNA polymerase iota catalytic core …. This is another data set of the same source.

Like-named read-outs stand apart in the source and are kept apart here.

B1: FAM-13/18mer primer-template DNA (dsDNA)
DNA 1: TTTGGGGGAAGGATTC
DNA 2: TCACGGAATCCTTCCCCC
As a reminder, the Kd is the concentration at which binding is half-saturated. The low end stands for tighter binding, the high end for weaker binding. For B1, the Kd in series [1] was found to be 9.1 ± 1.6 nM; in series [2], 13.7 ± 5.1 nM; in series [3], 5.5 ± 0.7 nM; in series [4], 8.8 ± 1.3 nM; in series [5], 19 ± 5.6 nM; in series [6] it was 6.3 ± 0.9 nM. Also, the Kd in series [7] is 11.1 ± 5.1 nM; in series [8] it was 5.3 ± 0.7 nM.
